Experimental data taken from US20210403582A1 (JACOBIO PHARMACEUTICALS, published 2021).

Assays:
human LIF protein [1] = biological target: T1, human LIF protein (human, UniProt P15018 23-202); test: competition ELISA: human LIF coated at 1 µg/mL, LIFR-Fc 0.6125 µg/mL added together with the antibody, A450
T1 construct: Bought recombinant protein (Sino Biological / Yiqiao Shenzhou 14890-HNAH) in most assays; also called recombinant human LIF protein; rhLIF
Method: The recombinant human LIF protein was coated on the enzyme label plate at a concentration of 1 μg/mL, LIFR protein (expressed fusedly with human FC) at a concentration of 0.6125 μg/mL was added (50 μL/well), and the anti-human LIF antibodies 38E10E1C11, P36-033 and 38E10E1C11R which is recombinantly expressed by CHO cells (SEQ ID NOs: 41 and 43) at different concentrations simultaneously were added separately (50 μL/well) and incubated for 2 h at room temperature. After washed four times with PBST, incubated with HRP-labeled goat anti-mouse FC secondary antibody for 1 h at room temperature. Then the plates were washed four times with PBST and added with TMB coloured solution in for 10 minutes. The absorption value at 450 nm is quantitated using an enzyme-labelling measuring instrument, and the data was analyzed and plotted using Origin pro 9 software.

[2] = biological target: recombinant machin LIF protein (machin, UniProt A0A2K5UCA8 23-202); test: ELISA, machin LIF coated at 0.5 µg/mL, A450
recombinant machin LIF protein, sequence (A0A2K5UCA8 entry or part of it limits assumed): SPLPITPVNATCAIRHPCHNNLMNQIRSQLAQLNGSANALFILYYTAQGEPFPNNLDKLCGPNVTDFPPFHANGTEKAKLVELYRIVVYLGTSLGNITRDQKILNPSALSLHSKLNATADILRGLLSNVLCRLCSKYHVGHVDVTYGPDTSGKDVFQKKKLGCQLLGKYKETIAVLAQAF
Method: The recombinant machin LIF protein (purchased from Sino biological) was diluted to 0.5 μg/mL, and was coated on the enzyme label plate, 100 μL of protein was added into every well, and incubated overnight in 4° C. The enzyme label plates were taken out next day, and the liquid was discarded, and were washed with PBST three times and blocked with 2% BSA in PBS for 1 h at room temperature, then washed with PBST three times, and added anti-human LIF antibodies 38E10E1C11, 5D8 and P36-033 at different concentrations and incubated for 1 h at room temperature. The liquid was discarded, and the plates were washed with PBST four times. The plates were added with HRP-labeled goat anti-mouse Fab antibody or goat anti-human FC antibody and incubated for 1 h at room temperature. Then the liquid was discarded, and the plates were washed with PBST four times and incubated with TMB colored solution in 10 minutes at room temperature. Stop color development by adding 2 mol/L H₂SO₄, and the absorption value at 450 nm is quantitated using an automated plate photometer, and the results were shown in FIG. 3.

human CNTF = biological target: T2, human CNTF (human, UniProt P26441 1-200, limits assumed); test: ELISA, human CNTF coated at 1 µg/mL, HRP goat anti-mouse Fab, A450
T2 sequence (looked up): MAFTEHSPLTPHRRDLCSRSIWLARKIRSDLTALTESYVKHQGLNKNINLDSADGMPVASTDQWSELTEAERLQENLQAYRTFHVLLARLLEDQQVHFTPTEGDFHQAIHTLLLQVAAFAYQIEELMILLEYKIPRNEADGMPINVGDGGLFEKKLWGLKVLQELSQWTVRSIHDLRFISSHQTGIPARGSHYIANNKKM
Method: (§1) After washed four times with PBST, HRP-labeled goat anti-mouse Fab secondary antibodies were added and incubated at room temperature for 1 h. After washed four times with PBST, TMB colored solution was added and color developing for 10 min at room temperature. The absorption value at 450 nm was read by the enzyme maker. The data were analyzed and plotted using Origin pro 9 software.

human IL-6 = human IL-6 (human, UniProt P05231 30-212, limits assumed); test: ELISA, human IL-6 coated at 1 µg/mL, HRP goat anti-mouse Fab, A450
human IL-6, sequence (P05231 30-212 limits assumed): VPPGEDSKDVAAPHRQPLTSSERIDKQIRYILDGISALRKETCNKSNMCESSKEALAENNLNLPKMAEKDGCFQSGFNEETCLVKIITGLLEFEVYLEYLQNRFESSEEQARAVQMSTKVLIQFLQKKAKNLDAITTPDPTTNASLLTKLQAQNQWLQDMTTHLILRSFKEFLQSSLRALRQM
Method: as §1

human LIF protein [3] = biological target: T1, human LIF protein; test: competition ELISA: human LIF coated at 1 µg/mL, GP130-Fc 20 µg/mL added together with the antibody, A450
Method: The recombinant human LIF protein was coated on the enzyme label plates at a concentration of 1 μg/mL, GP130 protein (expressed fusedly with human FC) at a concentration of 20 μg/mL was added (50 μL/well), and the anti-human LIF antibodies P36-033 and 38E10E1C11 at different concentrations simultaneously were added separately (50 μL/well), and incubated for 2 h at room temperature. At the same time, the control wells added with antibodies and without GP130 protein were set. Incubated for 2 h at room temperature. After washed four times with PBST, incubated with HRP-labeled goat anti-mouse FC secondary antibody for 1 h at room temperature. Then the plates were washed four times with PBST and added with TMB coloured solution in for 10 minutes. The absorption value at 450 nm is quantitated using an enzyme-labelling measuring instrument, and the data was analyzed and plotted using Origin pro 9 software.

T1 sequence (P15018 23-202 limits assumed): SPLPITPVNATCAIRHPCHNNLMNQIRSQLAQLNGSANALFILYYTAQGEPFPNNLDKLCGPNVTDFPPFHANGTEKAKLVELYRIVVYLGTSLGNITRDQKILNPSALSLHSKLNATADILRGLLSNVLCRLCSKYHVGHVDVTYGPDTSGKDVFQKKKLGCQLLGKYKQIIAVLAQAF

B1: 38E10E1C11 antibody (antibody, mouse IgG1, kappa)
heavy: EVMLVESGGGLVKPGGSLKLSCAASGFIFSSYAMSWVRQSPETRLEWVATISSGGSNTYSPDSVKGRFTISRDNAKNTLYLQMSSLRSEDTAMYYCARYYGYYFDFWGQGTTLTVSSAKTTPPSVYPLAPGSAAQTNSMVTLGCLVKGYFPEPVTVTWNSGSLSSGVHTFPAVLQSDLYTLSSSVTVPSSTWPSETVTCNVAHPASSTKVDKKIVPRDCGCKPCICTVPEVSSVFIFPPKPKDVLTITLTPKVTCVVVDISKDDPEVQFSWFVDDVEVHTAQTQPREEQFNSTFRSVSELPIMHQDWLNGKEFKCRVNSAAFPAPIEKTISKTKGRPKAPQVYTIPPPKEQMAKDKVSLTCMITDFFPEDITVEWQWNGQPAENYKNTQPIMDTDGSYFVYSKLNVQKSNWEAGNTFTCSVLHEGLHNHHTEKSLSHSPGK
light: DIHMTQSPASLSASVGETVTITCRASENIYSYLAWYQQKQGKSPQLLVYNAKTLAEGVPSRFSGSGSGTQFSLKINSLQPEDFGSYYCQHHYVTPLTFGAGTKLELKRADAAPTVSIFPPSSEQLTSGGASVVCFLNNFYPKDINVKWKIDGSERQNGVLNSWTDQDSKDSTYSMSSTLTLTKDEYERHNSYTCEATHKTSTSPIVKSFNRNEC
notes: Mouse IgG1, kappa light chain; also called 38E10E1C11 mAb; mAb38E10E1C11
IC50 (read off the curve) (human LIF protein [1]): ~0.3 µg/mL
EC50 (read off the curve) [2]: ~0.07 µg/mL
binding result (human CNTF): no binding (tested: 25 ug/ml)
binding result (human IL-6): no binding (tested: 25 ug/ml)
IC50 (read off the curve) (human LIF protein [3]): ~0.6 µg/mL
